Two molecules from patent US20200405879A1 (published 2020) can be followed below.

For one experiment, the target named is T1, CD19 (human, UniProt P15391 20-556).
T1 sequence (looked up): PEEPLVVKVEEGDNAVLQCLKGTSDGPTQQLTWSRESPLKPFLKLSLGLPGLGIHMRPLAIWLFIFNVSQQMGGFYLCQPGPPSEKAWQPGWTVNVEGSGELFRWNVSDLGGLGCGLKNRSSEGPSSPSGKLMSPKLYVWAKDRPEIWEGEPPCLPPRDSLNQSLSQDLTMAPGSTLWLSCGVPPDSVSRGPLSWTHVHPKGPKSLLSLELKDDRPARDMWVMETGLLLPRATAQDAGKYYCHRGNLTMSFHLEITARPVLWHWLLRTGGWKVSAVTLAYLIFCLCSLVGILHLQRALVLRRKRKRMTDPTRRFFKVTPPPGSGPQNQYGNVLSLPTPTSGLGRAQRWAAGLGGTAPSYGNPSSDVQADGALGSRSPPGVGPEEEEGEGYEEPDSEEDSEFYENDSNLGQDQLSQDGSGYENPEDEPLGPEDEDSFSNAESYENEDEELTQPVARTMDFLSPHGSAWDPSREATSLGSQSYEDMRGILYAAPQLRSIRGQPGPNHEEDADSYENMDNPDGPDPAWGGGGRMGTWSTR
Put plainly: cell-based or functional assay. On the set-up: unit not given beside the values.

For another experiment, the target named is CD22 (human, UniProt P20273 20-847). Put plainly: cell-based or functional assay. On the set-up: unit not given beside the values.

B1: ADCx19 (antibody, V domains shown)
VH: QVQLVQPGAEVVKPGASVKLSCKTSGYTFTSNWMHWVKQAPGQGLEWIGEIDPSDSYTNYNQNFQGKAKLTVDKSTSTAYMEVSSLRSDDTAVYYCARGSNPYYYAMDYWGQGTSVTVS
VL: EIVLTQSPAIMSASPGERVTMTCSASSGVNYMHWYQQKPGTSPRRWIYDTSKLASGVPARFSGSGSGTSYSLTISSMEPEDAATYYCHQRGSYTFGGGTKLEIK
modifications: pyrrolobenzodiazepine (PBD) dimer warhead attached to the antibody via a cleavable linker; DAR 2+/-0.3; attachment residues not stated
As for B1, the “EC50, in vitro cytotoxicity (MTS cell viability) on Ramos cells, 4 days” value in the experiment with CD19 stood at 0.000239.

B2: ADCx22 (antibody, human IgG1, kappa, V domains shown)
VH: QVQLVQSGAEVKKPGSSVKVSCKASGYTFTSYWLHWVRQAPGQGLEWIGYINPRNDYTEYNQNFKDKATITADESTNTAYMELSSLRSEDTAFYFCARRDITTFYWGQGTLVTVSS
VL: DIQLTQSPSSLSASVGDRVTMSCKSSQSVLYSANHKNYLAWYQQKPGKAPKLLIYWASTRESGVPSRFSGSGSGTDFTFTISSLQPEDIATYYCHQYLSSWTFGQGTKVEIKR
modifications: PBD drug-linker on heavy chain interchain cysteine Cys220 (EU numbering) = position 219 of SEQ ID NO. 15
B2: in the experiment with CD22, the “EC50, in vitro cytotoxicity (MTS cell viability) on Ramos cells, 4 days” value came to 0.0133.
